The supplement of paper PMC10567573

B1: CDS2 (parent)
chain: LIVVTQSHLVIHNLFEGMIWFIVP

Variants of: B1
Experiment: protein stability index of a GFP-peptide fusion (GPS, HEK-293T) (PSI 1-6); higher = more stable
Conditions: c terminus: a fixed tail appended
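Note: lentivirally expressed fusions sorted by FACS into six bins by GFP to DsRed ratio, PSI derived from sequencing read proportions per bin multiplied by bin number.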

| Variant | protein stability index |
| --- | --- |
| LIVVTQSSLVIHNLFEGMIWFIVP | 4.08 |
| LIVVTQSWLVIHNLFEGMIWFIVP | 2.77 |
| LIVVTQSLLVIHNLFEGMIWFIVP | 3.47 |
| LIVVTQSRLVIHNLFEGMIWFIVP | 2.81 |
| LIVVTQSMLVIHNLFEGMIWFIVP | 2.48 |
| LIVVTQSHLVIHNLFEGMIWFQVP | 1.69 |
| LIVVTQSHLVIHNLFEGMIWFTVP | 3.85 |
| LIVVTQSHLVIHNLFEGMIWFMVP | 3.27 |
| LIVVTQSHLVIHNLFEGMIWFSVP | 3.28 |
| LIVVTQSHLVIHNLFEGMIWFEVP | 3.14 |
| LIVVTQSHLVIHNLFEGMIWFYVP | 2.27 |
| LIVVTQSHLVIHNLFEGMIWFFVP | 2.83 |
| LIVVTQSHLVIHNLFEGMIWFLVP | 3.99 |
| LIVVTQSHLVIHNLFEGMIQFIVP | 4.66 |
| LIVVTQSHLVIHNLFEGMIEFIVP | 2.38 |
| LIVVTQSHLVIHNLFEGMIGFIVP | 2.19 |
| LIVVTQSHLVIHNLFEGMIKFIVP | 1.61 |
| LIVVTQSHLVIHNLFEGMIIFIVP | 3.21 |
| LIVVTQSHLVIHNLFEGMIHFIVP | 3.23 |
| LIVVTQSHLVIHNLFEGMICFIVP | 3.16 |
| LIVVTQSHLVIHNLFEGMIVFIVP | 3.06 |
| LIVVTQKHLVIHNLFEGMIWFIVP | 2.27 |
| LIVVTQRHLVIHNLFEGMIWFIVP | 4.35 |
| LIVVTQPHLVIHNLFEGMIWFIVP | 4.35 |

| Variant | protein stability index |
| --- | --- |
| LIVVTQTHLVIHNLFEGMIWFIVP | 4.59 |
| LIVVTQGHLVIHNLFEGMIWFIVP | 3.76 |
| LIVVTQWHLVIHNLFEGMIWFIVP | 3.44 |
| LIVVTQLHLVIHNLFEGMIWFIVP | 3.2 |
| LIVVTQDHLVIHNLFEGMIWFIVP | 2.68 |
| LIVVTESHLVIHNLFEGMIWFIVP | 2.59 |
| LIVVTSSHLVIHNLFEGMIWFIVP | 2.58 |
| LIVVTLSHLVIHNLFEGMIWFIVP | 4.3 |
| LIVVTRSHLVIHNLFEGMIWFIVP | 1.46 |
| LIVVTNSHLVIHNLFEGMIWFIVP | 3.99 |
| LIVVTMSHLVIHNLFEGMIWFIVP | 1.77 |
| LIVVTPSHLVIHNLFEGMIWFIVP | 3.21 |
| LIVVTCSHLVIHNLFEGMIWFIVP | 2.42 |
| LIVVTISHLVIHNLFEGMIWFIVP | 2.71 |
| LIVVTQSHLVIHNLFEQMIWFIVP | 2.63 |
| LIVVTQSHLVIHNLFEHMIWFIVP | 2.8 |
| LIVVTQSHLVIHNLFEVMIWFIVP | 3.48 |
| LIVVTQSHLVIHNLFEIMIWFIVP | 1.85 |
| LIVVTQSHLVIHNLFESMIWFIVP | 3.9 |
| LIVVTQSHLVIHNLFEWMIWFIVP | 2.35 |
| LIVVTQSHLVIHNLFEAMIWFIVP | 3.15 |
| LIVVTQSHLVIHNLFEEMIWFIVP | 2.55 |
| LIVPTQSHLVIHNLFEGMIWFIVP | 2.36 |
| LIVTTQSHLVIHNLFEGMIWFIVP | 3.04 |

| Variant | protein stability index |
| --- | --- |
| LIVWTQSHLVIHNLFEGMIWFIVP | 1.83 |
| LIVGTQSHLVIHNLFEGMIWFIVP | 3.49 |
| LIVDTQSHLVIHNLFEGMIWFIVP | 3.18 |
| NIVVTQSHLVIHNLFEGMIWFIVP | 2.67 |
| DIVVTQSHLVIHNLFEGMIWFIVP | 3.86 |
| HIVVTQSHLVIHNLFEGMIWFIVP | 3.11 |
| AIVVTQSHLVIHNLFEGMIWFIVP | 3.25 |
| SIVVTQSHLVIHNLFEGMIWFIVP | 3.83 |
| FIVVTQSHLVIHNLFEGMIWFIVP | 3.17 |
| PIVVTQSHLVIHNLFEGMIWFIVP | 3.61 |
| TIVVTQSHLVIHNLFEGMIWFIVP | 4.15 |
| MIVVTQSHLVIHNLFEGMIWFIVP | 3.16 |
| RIVVTQSHLVIHNLFEGMIWFIVP | 3.84 |
| IIVVTQSHLVIHNLFEGMIWFIVP | 3.5 |
| LGVVTQSHLVIHNLFEGMIWFIVP | 2.41 |
| LHVVTQSHLVIHNLFEGMIWFIVP | 3.16 |
| LLVVTQSHLVIHNLFEGMIWFIVP | 3.84 |
| LDVVTQSHLVIHNLFEGMIWFIVP | 1.02 |
| LVVVTQSHLVIHNLFEGMIWFIVP | 3.01 |
| LFVVTQSHLVIHNLFEGMIWFIVP | 1.75 |
| LIVVTQSHLVIHNLFEGMIWYIVP | 2.52 |
| LIVVTQSHLVIHNLFEGMIWKIVP | 4.85 |
| LIVVTQSHLVIHNLFEGMIWTIVP | 3.04 |
| LIVVTQSHLVIHNLFEGMIWEIVP | 1.96 |

| Variant | protein stability index |
| --- | --- |
| LIVVTQSHLVIHNLFEGMIWCIVP | 3.4 |
| LIVVTQSHLVIHNLFEGMIWSIVP | 2.8 |
| LIVVTQSHLVIHNLFEGMIWLIVP | 3.42 |
| LIVVTQSHLVIHNLFEGMIWRIVP | 2.94 |
| LIVVTQSHLVIHNLFEGMIWGIVP | 2.49 |
| LIVVTQSHLVIHNLFEGMIWWIVP | 1.6 |
| LIVVTQSHLVIHNLFSGMIWFIVP | 3.4 |
| LIVVTQSHLVIHNLFTGMIWFIVP | 2.83 |
| LIVVTQSHLVIHNLFIGMIWFIVP | 3.46 |
| LIVVTQSHLVIHNLFWGMIWFIVP | 3.98 |
| LIVVTQSHLVIHNLFQGMIWFIVP | 2.01 |
| LIVVTQSHLVIHNLFKGMIWFIVP | 2.35 |
| LIVVTQSHLVIHNLFFGMIWFIVP | 2.52 |
| LIVVTQSHLVIHNLFEGMKWFIVP | 2.41 |
| LIVVTQSHLVIHNLFEGMMWFIVP | 2.95 |
| LIVVTQSHLVIHNLFEGMFWFIVP | 2.89 |
| LIVVTQSHLVIHNLFEGMAWFIVP | 2.65 |
| LIVVTQSHLVIHNLFEGMQWFIVP | 3.36 |
| LIVVTQSHLVIHNLFEGMWWFIVP | 3.61 |
| LIFVTQSHLVIHNLFEGMIWFIVP | 3.18 |
| LIPVTQSHLVIHNLFEGMIWFIVP | 3.31 |
| LITVTQSHLVIHNLFEGMIWFIVP | 2.85 |
| LIRVTQSHLVIHNLFEGMIWFIVP | 2.14 |
| LIHVTQSHLVIHNLFEGMIWFIVP | 3.21 |

| Variant | protein stability index |
| --- | --- |
| LIKVTQSHLVIHNLFEGMIWFIVP | 3.44 |
| LILVTQSHLVIHNLFEGMIWFIVP | 2.57 |
| LINVTQSHLVIHNLFEGMIWFIVP | 2.96 |
| LIIVTQSHLVIHNLFEGMIWFIVP | 3.46 |
| LIVVTQSHTVIHNLFEGMIWFIVP | 3.82 |
| LIVVTQSHRVIHNLFEGMIWFIVP | 2.9 |
| LIVVTQSHVVIHNLFEGMIWFIVP | 2.3 |
| LIVVTQSHQVIHNLFEGMIWFIVP | 3.56 |
| LIVVTQSHPVIHNLFEGMIWFIVP | 5.08 |
| LIVVTQSHAVIHNLFEGMIWFIVP | 2.29 |
| LIVVTQSHDVIHNLFEGMIWFIVP | 2.62 |
| LIVVTQSHKVIHNLFEGMIWFIVP | 3.33 |
| LIVVTQSHNVIHNLFEGMIWFIVP | 2.36 |
| LIVVTQSHFVIHNLFEGMIWFIVP | 1.48 |
| LIVVTQSHWVIHNLFEGMIWFIVP | 2.91 |
| LIVVTQSHYVIHNLFEGMIWFIVP | 2.24 |
| LIVVTQSHIVIHNLFEGMIWFIVP | 1.84 |
| LIVVTQSHLVIHNLFEGMIWFIVM | 2.59 |
| LIVVTQSHLVIHNLFEGMIWFIVR | 3.1 |
| LIVVTQSHLVIHNLFEGMIWFIVS | 1.99 |
| LIVVTQSHLVIHNLFEGMIWFIVW | 3.81 |
| LIVVTQSHLVIHNLFEGMIWFIVD | 2.06 |
| LIVVTQSHLVIHNLFEGMIWFIVF | 2.52 |
| LIVVTQSHLVIHNLFEGMIWFIVN | 2.81 |

| Variant | protein stability index |
| --- | --- |
| LIVVTQSHLVIHNLFEGMIWFIVV | 2.65 |
| LIVVTQSHLVIHNLLEGMIWFIVP | 2.41 |
| LIVVTQSHLVIHNLMEGMIWFIVP | 4.48 |
| LIVVTQSHLVIHNLREGMIWFIVP | 2.03 |
| LIVVTQSHLVIHNLIEGMIWFIVP | 3.58 |
| LIVVTQSHLVIHNLPEGMIWFIVP | 2.8 |
| LIVVTQSHLVIHNLEEGMIWFIVP | 2.13 |
| LIVVTQSHLVIHNLQEGMIWFIVP | 2.25 |
| LIVVTQSHLVIHNLWEGMIWFIVP | 4.64 |
| LIVVTQSHLCIHNLFEGMIWFIVP | 2.23 |
| LIVVTQSHLFIHNLFEGMIWFIVP | 3.01 |
| LIVVTQSHLIIHNLFEGMIWFIVP | 4.56 |
| LIVVTQSHLAIHNLFEGMIWFIVP | 3.19 |
| LIVVTQSHLKIHNLFEGMIWFIVP | 2.67 |
| LIVVTQSHLGIHNLFEGMIWFIVP | 1.83 |
| LIVVTQSHLDIHNLFEGMIWFIVP | 1.79 |
| LIVVTQSHLHIHNLFEGMIWFIVP | 2.88 |
| LIVVTQSHLWIHNLFEGMIWFIVP | 2.46 |
| LIVVTQSHLPIHNLFEGMIWFIVP | 1.52 |
| LIVVTQSHLVEHNLFEGMIWFIVP | 2.39 |
| LIVVTQSHLVWHNLFEGMIWFIVP | 1.04 |
| LIVVTQSHLVGHNLFEGMIWFIVP | 2.27 |
| LIVVTQSHLVVHNLFEGMIWFIVP | 2.52 |
| LIVVTQSHLVSHNLFEGMIWFIVP | 3.42 |

| Variant | protein stability index |
| --- | --- |
| LIVVTQSHLVDHNLFEGMIWFIVP | 3.58 |
| LIVVTQSHLVHHNLFEGMIWFIVP | 1.57 |
| LIVVTQSHLVIHNLFEGMIWFIQP | 1.52 |
| LIVVTQSHLVIHNLFEGMIWFIAP | 2.36 |
| LIVVTQSHLVIHNLFEGMIWFILP | 3.54 |
| LIVVTQSHLVIHNLFEGMIWFIIP | 2.9 |
| LIVVTQSHLVIHNLFEGMIWFINP | 2.51 |
| LIVVTQSHLVIHNLFEGMIWFIYP | 3.02 |
| LIVVTQSHLVIHLLFEGMIWFIVP | 3.44 |
| LIVVTQSHLVIHSLFEGMIWFIVP | 3.02 |
| LIVVTQSHLVIHDLFEGMIWFIVP | 2.63 |
| LIVVTQSHLVIHRLFEGMIWFIVP | 2.08 |
| LIVVTQSHLVIHFLFEGMIWFIVP | 2.94 |
| LIVVTQSHLVIHELFEGMIWFIVP | 2.93 |
| LIVVTQSHLVIHCLFEGMIWFIVP | 3.03 |
| LIVVTQSHLVIHGLFEGMIWFIVP | 2.9 |
| LIVVTQSHLVIHHLFEGMIWFIVP | 1.83 |
| LIVVTQSHLVIHPLFEGMIWFIVP | 3.48 |
| LIVVTQSHLVIHALFEGMIWFIVP | 4.23 |
| LIVVTQSHLVIHNLFEGAIWFIVP | 4.48 |
| LIVVTQSHLVIHNLFEGQIWFIVP | 2.68 |
| LIVVTQSHLVIHNLFEGFIWFIVP | 3.12 |
| LIVVTQSHLVIHNLFEGGIWFIVP | 2.85 |
| LIVVTQSHLVIHNLFEGDIWFIVP | 3.2 |

| Variant | protein stability index |
| --- | --- |
| LIVVTQSHLVIHNLFEGYIWFIVP | 3.67 |
| LIVVTQSHLVIHNLFEGSIWFIVP | 2.98 |
| LIVVTQSHLVIHNLFEGKIWFIVP | 1.96 |
| LIVVTQSHLVILNLFEGMIWFIVP | 3.7 |
| LIVVTQSHLVICNLFEGMIWFIVP | 3.91 |
| LIVVTQSHLVIGNLFEGMIWFIVP | 3.39 |
| LIVVTQSHLVIANLFEGMIWFIVP | 3.32 |
| LIVVTQSHLVIHNIFEGMIWFIVP | 3.44 |
| LIVVTQSHLVIHNGFEGMIWFIVP | 3.6 |
| LIVVTQSHLVIHNKFEGMIWFIVP | 3.69 |
| LIVVTQSHLVIHNYFEGMIWFIVP | 3.06 |
| LIVVTQSHLVIHNQFEGMIWFIVP | 2.25 |
| LIVVTQSHLVIHNVFEGMIWFIVP | 2.71 |
| LIVVYQSHLVIHNLFEGMIWFIVP | 2.99 |
| LIVVMQSHLVIHNLFEGMIWFIVP | 3.04 |
| LIVVKQSHLVIHNLFEGMIWFIVP | 2.97 |
| LIVVGQSHLVIHNLFEGMIWFIVP | 4.08 |
| LIVVLQSHLVIHNLFEGMIWFIVP | 2.71 |
| LIVVHQSHLVIHNLFEGMIWFIVP | 3.62 |
| LIVVCQSHLVIHNLFEGMIWFIVP | 4.62 |
